The text below walks through data of patent US20110165145A1 (published 2011).

Changes are numbered by the printed parent chain. A value given as a limit tells only on which side of the number the result lay.

Test [1] deals with T1, IGF binding protein 2 (BP2) (UniProt P18065 36-325).
T1 construct: also called IGF BP2
T1 sequence (looked up): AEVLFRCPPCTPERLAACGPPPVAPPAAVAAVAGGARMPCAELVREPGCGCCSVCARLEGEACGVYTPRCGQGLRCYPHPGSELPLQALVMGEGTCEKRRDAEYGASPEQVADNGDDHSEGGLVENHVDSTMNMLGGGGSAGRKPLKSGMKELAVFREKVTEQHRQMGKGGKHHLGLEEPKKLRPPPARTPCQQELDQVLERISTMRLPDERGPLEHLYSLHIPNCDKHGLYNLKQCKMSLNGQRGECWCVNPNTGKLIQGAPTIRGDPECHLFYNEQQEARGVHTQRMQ
Kind of test: SPR (BIACORE T100): BP2 injected over M0064-E04 IgG captured on Protein G', with buffer in place of IGF-II. (Surface plasmon resonance follows binding to a sensor surface in real time, without labels.)

Test [2] concerns the target T2, insulin-like growth factor II (IGF-II), amino acids 1-67 (human, UniProt P01344 25-91).
T2 construct: recombinant; also called IGF-II (67aa); IGF2
Kind of test: SPR (BIACORE), IgG.

Test [3] deals with T3, IGF-IIE (amino acids 1-104 of pro-IGF-II) (human, UniProt P01344 25-128).
T3 construct: Biotinylated in the selections; also called IGF-IIE (104aa)
Kind of test: SPR (BIACORE), IgG.

Test [4] addresses T2, insulin-like growth factor II (IGF-II), …. Kind of test: SPR, IgG on Protein G', then ligand, then BP; competitor BP2; 0 = no significant competition, 5 = competes strongly. The protocol: (§1) BIACORE® T100 and a CM5 chip coated with Protein G were utilised to set up following assay. Approximately 1000 RU of Protein G′ was immobilized on a CM5 chip using standard amine chemistry immobilization method.
(§2) 4) Protein G′ surface was finally regenerated by injection of 10 mM Glycine pH 1.5-injected at 30 ul/min for 60 sec.

The target of test [5] is T3, IGF-IIE (amino acids 1-104 of …). The description is as above. On the procedure: as §1, §2
The target of test [6] is T4, IGF binding protein 4 (BP4) (UniProt P22692 22-258).
T4 construct: also called IGF BP4
T4 sequence (looked up): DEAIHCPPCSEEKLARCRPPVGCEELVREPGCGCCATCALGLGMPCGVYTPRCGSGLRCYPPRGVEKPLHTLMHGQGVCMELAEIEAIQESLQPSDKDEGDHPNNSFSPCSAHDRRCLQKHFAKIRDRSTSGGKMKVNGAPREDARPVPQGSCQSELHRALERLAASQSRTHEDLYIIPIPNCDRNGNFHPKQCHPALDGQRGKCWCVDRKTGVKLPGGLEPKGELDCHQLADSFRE
Kind of test: SPR (BIACORE T100): BP4 injected over M0064-E04 IgG captured on Protein G', with buffer in place of IGF-II.

In test [7] the target is T2, insulin-like growth factor II (IGF-II), …. The experiment in a line: cell-based or functional assay.
In test [8] the target is T3, IGF-IIE (amino acids 1-104 of …). Kind of test: cell-based or functional assay.
The target in test [9] is T2, insulin-like growth factor II (IGF-II), …. The experiment in a line: SPR, IgG on Protein G', then ligand, then BP; competitor BP4; 0 = no significant competition, 5 = competes strongly. The protocol:
as §1, §2

The target of test [10] is T3, IGF-IIE (amino acids 1-104 of …). The test is described as above. On the procedure: as §1, §2
Test [11] concerns the target T2, insulin-like growth factor II (IGF-II), …. The experiment in a line: competition SPR (BIACORE T100), affinity in solution, free ligand read on huIR-A ECD; measurement 1. The protocol:
(§3) Competition SPR (BIACORE®) was performed under conditions of partially mass-transport limited conditions according to previously described methodology (Nieba et al., 1996). Approximately 16,700 relative response units (RU) of huIR-A (-exon11) ectodomain was coupled by standard amine chemistry to a BIACORE® CM5 chip sensor. Uncoated flow-cell surface was used as a reference. […] Regeneration of the surface was achieved by injection of 30 ul NaCltrate/NaCl pH 4.5. […] These Req estimates were subsequently plotted against total concentrations of Fab used and the resulting inhibition curve was utilised to calculate dissociation constant (KD).

Test [12] deals with T3, IGF-IIE (amino acids 1-104 of …). The description is as above. On the procedure:
as §3

Test [13] has as its target T2, insulin-like growth factor II (IGF-II), …. Kind of test: SPR, compared with DX-2647.
The target is the same in test [14]. Kind of test: SPR (value equals that of Table 6, there under IgGs); Fab, not IgG.
For test [15] the target is unchanged. Kind of test: SPR (Flexchip), Fab, 1st of duplicate.
Test [16] concerns the target T3, IGF-IIE (amino acids 1-104 of …). Kind of test: SPR (Flexchip), Fab, 1st of duplicate.
Test [17] deals with T2, insulin-like growth factor II (IGF-II), …. Kind of test: competition SPR (BIACORE T100), affinity in solution, free ligand read on huIR-A ECD; measurement 2. On the procedure: as §3
Test [18] addresses T3, IGF-IIE (amino acids 1-104 of …). Described as above. The protocol: as §3
Test [19] has as its target T2, insulin-like growth factor II (IGF-II), …. The experiment in a line: cell-based or functional assay. This is another data set of the same source.
For test [20], the target named is T3, IGF-IIE (amino acids 1-104 of …). The experiment in a line: cell-based or functional assay. This is another data set of the same source.
Test [21] addresses T5, insulin-like growth factor I (IGF-I) (UniProt P05019 49-118). Kind of test: cell-based or functional assay.
For test [22], the target named is T2, insulin-like growth factor II (IGF-II), …. The experiment in a line: SPR (Flexchip), Fab, 2nd of duplicate.
For test [23], the target named is T3, IGF-IIE (amino acids 1-104 of …). Kind of test: SPR (Flexchip), Fab, 2nd of duplicate.
The target of test [24] is pre-formed complex of IGF-II and IGFBP-1 (human, UniProt P08833 26-259). Kind of test: SPR: DX-2647 captured through its Fc, pre-formed IGF-II/IGFBP-1 complex injected; concentration not on the sheet.
Test [25] addresses T5, insulin-like growth factor I (IGF-I). Kind of test: SPR, captured IgG, 1:1 binding model.
For test [26], the target named is T2, insulin-like growth factor II (IGF-II), …. The experiment in a line: SPR, captured IgG, 1:1 binding model.
For test [27], the target named is T3, IGF-IIE (amino acids 1-104 of …). The experiment in a line: SPR, captured IgG, 1:1 binding model.
The target of another test is T6, IGFBP-1 (UniProt P08833 26-259).
T6 sequence (looked up): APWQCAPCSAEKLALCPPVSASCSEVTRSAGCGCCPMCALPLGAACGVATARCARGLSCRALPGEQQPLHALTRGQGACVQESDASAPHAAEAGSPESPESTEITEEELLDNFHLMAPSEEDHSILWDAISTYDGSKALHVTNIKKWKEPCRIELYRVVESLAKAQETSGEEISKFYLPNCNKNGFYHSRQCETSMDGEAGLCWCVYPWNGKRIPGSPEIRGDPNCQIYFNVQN
The experiment in a line: SPR: DX-2647 captured through its Fc, IGFBP-1 alone injected; concentration not on the sheet.

In test [28] the target is T5, insulin-like growth factor I (IGF-I). Kind of test: SPR.
Test [29] deals with T2, insulin-like growth factor II (IGF-II), …. Kind of test: SPR, IgG captured on anti-human Fc chip, ligand as analyte.

T2 sequence (P01344 25-91): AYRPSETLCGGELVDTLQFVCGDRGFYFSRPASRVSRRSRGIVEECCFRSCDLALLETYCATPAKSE
T3 sequence (P01344 25-128): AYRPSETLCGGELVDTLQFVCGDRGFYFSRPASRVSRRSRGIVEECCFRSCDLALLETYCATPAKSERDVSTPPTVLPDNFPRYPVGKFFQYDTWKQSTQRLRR
T5 sequence (P05019 49-118 limits assumed): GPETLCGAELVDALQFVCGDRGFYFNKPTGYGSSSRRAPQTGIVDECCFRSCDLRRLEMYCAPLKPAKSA

B1: M0064-E04 IgG (parental, non-germlined) (antibody, V domains shown)
VH: EVQLLESGGGLVQPGGSLRLSCAASGFTFSVYDMNWVRQAPGKGLEWVSSISSSGGGTLYADSVKGRFTISRDNSKNTLYLQMNSLRAEDTAVYYCARDSDTSSYYWYYDLWGRGTLVTVSS
VL: DIQMTQSPSSLSASVGDRVTITCQASHDISNYLNWYQQKPGKAPKLLIYAASRLQSGVPSRFSGGGSGTDFSLTISSLQAEDFATYYCQQSYSFPRTFGQGTNLEIK
B1: the binding result in test [1] and in test [6] was “no binding (tested: 50.0 nM)” in each case. Moreover, the results for the equilibrium dissociation constant (Kd) in test [2] and in [3] were 0.52 nM and 0.24 nM, respectively. Also, the competition score in [4] turned out to be 5 score 0-5; in [5], 4 score 0-5; in test [9] it was 5 score 0-5; in test [10], 4 score 0-5. For the same molecule, the “IC50, IGF-II stimulated Ba/F3 cell proliferation (Guava ViaCount)” value in test [7] was roughly 19 nM. Besides, the “IC50, IGF-IIE stimulated Ba/F3 cell proliferation (Guava ViaCount)” value in test [8] was roughly 130 nM.

B2: M0064-F02 Fab (Fab, V domains shown)
VH: EVQLLESGGGLVQPGGSLRLSCAASGFTFSNYIMWWVRQAPGKGLEWVSVISSSGGMTRYADSVKGRFTISRDNSKNTLYLQMNSLRAEDTAVYYCARDNGDYVGEKGFDIWGQGTMVTVSS
VL: DIQMTQSPSSLSASVGDRVTITCRASQSISNYLNWYQQKPGKAPKLLIYTASTLQSGVPSRFSGSASGTDFTLTINSLQPEDFATYSCQQSYNSPWTFGQGTKVEIKR
notes: soluble Fab (sFab); also the Fab crystallised with IGF-II; also called R0032-A11; 566A-M0064-F02
For the molecule B2, the dissociation constant (Kd) (as a rule, the free concentration of one partner at which half of the binding sites on the other are occupied at equilibrium, for simple one-to-one binding) in [11] stood at 1.03 nM; in test [12], 1.91 nM; in [14], 0.14 nM; in test [15] it was 0.45 nM; in test [16], 0.32 nM; in test [17], 0.503 nM. Also, the equilibrium dissociation constant (Kd) was 0.352 nM in test [18], 1.2 nM in [22] and 0.29 nM in [23]. The “fold less affinity than DX-2647” value in [13] was 7 fold. Further, the “IC50, IGF-II stimulated Ba/F3 cell proliferation (MTS)” value in [19] turned out to be 0.68 µg/mL. Besides, the “IC50, IGF-IIE stimulated Ba/F3 cell proliferation (MTS)” value in test [20] stood at 3.12 µg/mL. Moreover, the “IGF-I stimulated Ba/F3 cell proliferation, sFab at 50 µg/ml” value in test [21] is roughly 30 % inhibition.

B3: DX-2647 (antibody, human IgG1, kappa, V domains shown)
VH: B2 VH with M57G, R59L
VL: B2 VL with A66G, N76S, S87Y
notes: human IgG1, germlined from 566A-M0064-F02, expressed in CHOK1SV cells
Regarding B3, the binding result (in test [24]; with IGFBP-1) was “no binding” in each case. In addition, the dissociation constant Kd in test [25] was 17 nM; in [26], 0.0226 nM; in test [27] it was less than 0.023 nM; in [28] it was 28 nM; in test [29], 0.023 nM. The off-rate constant (koff) (in general, the first-order rate constant of dissociation) was 0.1 s⁻¹ in test [25], 2.38e-05 s⁻¹ in test [26] and less than 2e-05 s⁻¹ in [27]. The kon – broadly, the second-order rate constant of association – came to 5.8e+06 M⁻¹ s⁻¹ in [25], 1.06e+06 M⁻¹ s⁻¹ in test [26] and 2.06e+06 M⁻¹ s⁻¹ in test [27].
